In patent US20060287510A1 (Genentech, published 2006):

Target: T1, recombinant human insulin-like growth factor-1 (rhIGF-1) (human, UniProt P05019 49-118)
T1 construct: Soluble protein used for crystallization, sedimentation equilibrium and NMR; It was uniformly 13C/15N labelled for the NMR complex with IGF-F1-1; also called human IGF-1; 13C/15N IGF-1
Experiment: NMR structure of the complex (figure legend)

T1 sequence (P05019 49-118): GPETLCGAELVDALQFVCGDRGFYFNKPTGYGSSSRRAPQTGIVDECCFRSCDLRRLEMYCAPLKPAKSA

B1: phage-derived IGF-1 antagonist peptide IGF-F1-1 (peptide)
peptide: RNCFESVAALRRCMYG
notes: Unlabelled peptide mixed in slight molar excess with 1.5 mM 13C/15N IGF-1 for NMR
- binding result: binds
